The target of test [1] is T1, His-tagged recombinant Human TIGIT (human, UniProt Q495A1 22-141).
T1 construct: also called VSIG9; VSTM3; not shown: His tag
T1 sequence (looked up): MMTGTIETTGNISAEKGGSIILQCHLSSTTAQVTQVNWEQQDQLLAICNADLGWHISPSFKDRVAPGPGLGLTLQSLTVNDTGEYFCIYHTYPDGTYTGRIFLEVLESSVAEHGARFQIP
Briefly: ELISA, coated His-tagged human TIGIT. The procedure: (§1) Binding affinities for antigen binding to anti-TIGIT monoclonal antibodies were determined by ELISA. […] Antibodies to be tested were diluted to 1 μM in PBS buffer containing 1% BSA and diluted 3-fold in a 10-point curve. […] Detection of the secondary antibody was determined using streptavidin-HRP and TMB reagent. All assays were performed at room temperature. Curve-fitting software was used to determine the EC₅₀ for each antibody.
Background: In an ELISA, binding on a coated surface is turned into a signal by an enzyme label.

For test [2], the target named is T2, His-tagged recombinant Mouse TIGIT (mouse, UniProt P86176 29-148, limits assumed).
T2 construct: not shown: His tag
T2 sequence (looked up): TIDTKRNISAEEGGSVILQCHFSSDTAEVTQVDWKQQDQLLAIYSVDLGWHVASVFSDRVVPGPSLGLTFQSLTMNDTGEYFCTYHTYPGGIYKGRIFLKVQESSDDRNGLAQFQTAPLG
Briefly: ELISA, coated His-tagged mouse TIGIT. The method, then:
as §1

The results in this text go back to patent publication US20200339678A1 (RIGEL PHARMACEUTICALS, published 2020).

B1: Ab28 (Fab, V domains shown)
VH: EVQLLESGGGLVQPGGSLRLSCAASGFTFSSYSMHWVRQAPGKGLEWVANINSNGGNTGYADSVKGRFTISRDNSKNTLYLQMNSLRAEDTAVYYCARVPYDVWMDYWGQGTLVTVSS
VL: not shown
notes: ARV set
For orientation: EC50 means the concentration giving half of the maximal effect. B1: the EC50 in test [1] is 7.5 nM; in test [2] it was 28.7 nM.

B2: Ab143 (Fab, V domains shown)
VH: EVQLLESGGGLVQPGGSLRLSCAASGFTFSSYSMHWVRQAPGKGLEWVAAINSNAGSSSYADSVKGRFTISRDNSKNTLYLQMNSLRAEDTAVYYCARVPYGVWMDYWGQGTLVTVSS
VL: not shown
notes: ARV set; also called clone Ab143
For B2, the EC50 came out at 3.4 nM in test [1] and 5.7 nM in test [2].

B3: Ab157 (Fab, V domains shown)
VH: EVQLLESGGGLVQPGGSLRLSCAASGFTFSSYSMNWVRQAPGKGLEWVASINSNAGSTYYADSVKGRFTISRDNSKNTLYLQMNSLRAEDTAVYYCARVPYDYWMDYWGQGTLVTVSS
VL: not shown
notes: ARV set
As for B3, the EC50 in test [1] stood at 165 nM; in test [2], 116 nM.

B4: Ab172 (Fab, V domains shown)
VH: EVQLLESGGGLVQPGGSLRLSCAASGFTFSSYSMHWVRQAPGKGLEWVSSIKSSAGYTYYADSVKGRFTISRDNSKNTLYLQMNSLRAEDTAVYYCARVPYDYWIDYWGQGTLVTVSS
VL: not shown
notes: ARV set
Take B4: the EC50 was determined as 83.2 nM in test [1] and 108 nM in test [2].

B5: Ab179 (Fab, V domains shown)
VH: EVQLLESGGGLVQPGGSLRLSCAASGFTFSSYAMSWVRQAPGKGLEWVASIKSNTGSTYYADSVKGRFTISRDNSKNTLYLQMNSLRAEDTAVYYCAREPYSVWLDYWGQGTLVTVSS
VL: not shown
notes: ARE set
With B5, the EC50 in test [1] came to 155 nM; in test [2] it was 228 nM.

B6: Ab131 (Fab, V domains shown)
VH: EVQLLESGGGLVQPGGSLRLSCAASGFTFSSYAMSWVRQAPGKGLEWVSDIKSSAGSTSYADSVKGRFTISRDNSKNTLYLQMNSLRAEDTAVYYCARVPYSVWIDYWGQGTLVTVSS
VL: not shown
notes: ARV set
Turning to B6, the results for the EC50 in test [1] and in test [2] were 7.2 nM and 331 nM, respectively.

B7: Ab74 (Fab, V domains shown)
VH: EVQLLESGGGLVQPGGSLRLSCAASGFTFSSYSMHWVRQAPGKGLEWVASISSNAGTTGYADSVKGRFTISRDNSKNTLYLQMNSLRAEDTAVYYCARVPYDYWIDYWGQGTLVTVSS
VL: not shown
notes: ARV set
B7: the results for the EC50 in test [1] and in test [2] were 177 nM and 41.9 nM, respectively.

B8: Ab1 (Fab, V domains shown)
VH: EVQLLESGGGLVQPGGSLRLSCAASGFTFSSYAMHWVRQAPGKGLEWVSGISSNGGSTSYADSVKGRFTISRDNSKNTLYLQMNSLRAEDTAVYYCARVPYSVWIDYWGQGTLVTVSS
VL: not shown
notes: ARV set; also called clone Ab1
B8: the EC50 in test [1] was 40.3 nM; in test [2], 181 nM.

B9: Ab153 (Fab, V domains shown)
VH: EVQLLESGGGLVQPGGSLRLSCAASGFTFSSYSMHWVRQAPGKGLEWVSSINSNAGTISYADSVKGRFTISRDNSKNTLYLQMNSLRAEDTAVYYCARVPYDYWIDYWGQGTLVTVSS
VL: not shown
notes: ARV set
As for B9, the EC50 is 87.7 nM in test [1] and 13.9 nM in test [2].

B10: Ab48 (Fab, V domains shown)
VH: EVQLLESGGGLVQPGGSLRLSCAASGFTFSSYSMNWVRQAPGKGLEWVANIKSSGSSTSYADSVKGRFTISRDNSKNTLYLQMNSLRAEDTAVYYCARGPYDVWMDYWGQGTLVTVSS
VL: not shown
notes: ARG set; also called clone Ab48
As for B10, the concentration giving a half-maximal response (EC50) in test [1] was 13.8 nM; in test [2] it was 41.8 nM.

B11: Ab46 (Fab, V domains shown)
VH: EVQLLESGGGLVQPGGSLRLSCAASGFTFSSYSMHWVRQAPGKGLEWVAGIWSSGGTTSYADSVKGRFTISRDNSKNTLYLQMNSLRAEDTAVYYCARVPYGVWMDYWGQGTLVTVSS
VL: not shown
notes: ARV set
On to B11, for which the half-maximal effective concentration (EC50) in test [1] amounted to 8.2 nM; in test [2], 95 nM.

B12: Ab148 (Fab, V domains shown)
VH: EVQLLESGGGLVQPGGSLRLSCAASGFTFSSYSMSWVRQAPGKGLEWVASIKGSAGYIYYADSVKGRFTISRDNSKNTLYLQMNSLRAEDTAVYYCARVPYDYWMDYWGQGTLVTVSS
VL: not shown
notes: ARV set
As for B12, the EC50 in test [1] is 168 nM; in test [2], 16.4 nM.

B13: Ab49 (Fab, V domains shown)
VH: EVQLLESGGGLVQPGGSLRLSCAASGFTFSSYSMHWVRQAPGKGLEWVASIKSSGGYKSYADSVKGRFTISRDNSKNTLYLQMNSLRAEDTAVYYCARGPYDVWIDYWGQGTLVTVSS
VL: not shown
notes: ARG set
Take B13: the EC50 in test [1] came to 27.6 nM; in test [2], 58 nM.

B14: Ab47 (Fab, V domains shown)
VH: EVQLLESGGGLVQPGGSLRLSCAASGFTFSSYSMNWVRQAPGKGLEWVASIKSSSSYTSYADSVKGRFTISRDNSKNTLYLQMNSLRAEDTAVYYCARGPYDTWLDYWGQGTLVTVSS
VL: not shown
notes: ARG set
For the molecule B14, the EC50 worked out at 34.9 nM in test [1] and 361 nM in test [2].

B15: Ab32 (Fab, V domains shown)
VH: EVQLLESGGGLVQPGGSLRLSCAASGFTFSSYSMHWVRQAPGKGLEWVANINSNGGNTGYADSVKGRFTISRDNSKNTLYLQMNSLRAEDTAVYYCARVPYDVWMDYWGQGTLVTVSS
VL: not shown
notes: ARV set
In the case of B15, the figures for the EC50 in test [1] and in test [2] were 4.3 nM and 14.7 nM, respectively.

B16: Ab76 (Fab, V domains shown)
VH: EVQLLESGGGLVQPGGSLRLSCAASGFTFDSYSMHWVRQAPGKGLEWVSAISGSGGSTYYADSVKGRFTISRDNSKNTLYLQMNSLRAEDTAVYYCARVPYSVWIDYWGQGTLVTVSS
VL: not shown
notes: ARV set
Consider B16, for which the concentration giving a half-maximal response (EC50) in test [1] was 68.1 nM; in test [2] it was 65.7 nM.

B17: Ab7 (Fab, V domains shown)
VH: EVQLLESGGGLVQPGGSLRLSCAASGFTFSSYAMSWVRQAPGKGLEWVASIKSSSSSISYADSVKGRFTISRDNSKNTLYLQMNSLRAEDTAVYYCAREPYSYWLDYWGQGTLVTVSS
VL: not shown
notes: ARE set
Regarding B17, the EC50 in test [1] worked out at 14.6 nM; in test [2], 11.5 nM.

B18: Ab145 (Fab, V domains shown)
VH: EVQLLESGGGLVQPGGSLRLSCAASGFTFSSYAMSWVRQAPGKGLEWVASISSSTGYTSYADSVKGRFTISRDNSKNTLYLQMNSLRAEDTAVYYCAREPYSYWLDYWGQGTLVTVSS
VL: not shown
notes: ARE set
Consider B18, for which the EC50 amounted to 232 nM in test [1] and 50.4 nM in test [2].

B19: Ab72 (Fab, V domains shown)
VH: EVQLLESGGGLVQPGGSLRLSCAASGFTFSSYSMHWVRQAPGKGLEWVAAIKSDAGTSGYADSVKGRFTISRDNSKNTLYLQMNSLRAEDTAVYYCARVPYDYWIDYWGQGTLVTVSS
VL: not shown
notes: ARV set
As for B19, the concentration giving a half-maximal response (EC50) in test [1] turned out to be 81.7 nM; in test [2], 235 nM.

B20: Ab191 (Fab, V domains shown)
VH: EVQLLESGGGLVQPGGSLRLSCAASGFTFSSYSMHWVRQAPGKGLEWVSSIKSSASYSSYADSVKGRFTISRDNSKNTLYLQMNSLRAEDTAVYYCARVPYDYWMDYWGQGTLVTVSS
VL: not shown
notes: ARV set
With B20, the EC50 was 44.9 nM in test [1] and 104 nM in test [2].

B21: Ab124 (Fab, V domains shown)
VH: EVQLLESGGGLVQPGGSLRLSCAASGFTFSSYSMHWVRQAPGKGLEWVASIKGSASYSYYADSVKGRFTISRDNSKNTLYLQMNSLRAEDTAVYYCARVPYDYWMDYWGQGTLVTVSS
VL: not shown
notes: ARV set
Consider B21, for which the 50% effective concentration (EC50) was 34.3 nM in test [1] and 14.1 nM in test [2].

B22: Ab19 (Fab, V domains shown)
VH: EVQLLESGGGLVQPGGSLRLSCAASGFTFSSYSMSWVRQAPGKGLEWVANIKSNSGYTYYADSVKGRFTISRDNSKNTLYLQMNSLRAEDTAVYYCAREPYSVWLDYWGQGTLVTVSS
VL: not shown
notes: ARE set
For the molecule B22, the EC50 was 19.8 nM in test [1] and 64.8 nM in test [2].

B23: Ab54 (Fab, V domains shown)
VH: EVQLLESGGGLVQPGGSLRLSCAASGFTFSSYAMSWVRQAPGKGLEWVSSIKSNTGSTSYADSVKGRFTISRDNSKNTLYLQMNSLRAEDTAVYYCAREPYSYWLDYWGQGTLVTVSS
VL: not shown
notes: ARE set
In the case of B23, the figures for the EC50 in test [1] and in test [2] were 91.9 nM and 21.5 nM, respectively.

B24: Ab95 (Fab, V domains shown)
VH: EVQLLESGGGLVQPGGSLRLSCAASGFTFSSYAMSWVRQAPGKGLEWVASIKSSTGYIGYADSVKGRFTISRDNSKNTLYLQMNSLRAEDTAVYYCAREPYSYWLDYWGQGTLVTVSS
VL: not shown
notes: ARE set
In the case of B24, the values for the EC50 in test [1] and in test [2] were 357 nM and 100 nM, respectively.

B25: Ab155 (Fab, V domains shown)
VH: EVQLLESGGGLVQPGGSLRLSCAASGFTFSSYSMNWVRQAPGKGLEWVAAISGDTGTSGYADSVKGRFTISRDNSKNTLYLQMNSLRAEDTAVYYCAREPYSVWLDYWGQGTLVTVSS
VL: not shown
notes: ARE set
B25: the EC50 was determined as 32.8 nM in test [1] and 234 nM in test [2].

B26: Ab23 (Fab, V domains shown)
VH: EVQLLESGGGLVQPGGSLRLSCAASGFTFSSYAMSWVRQAPGKGLEWVARINSDSSNTYYADSVKGRFTISRDNSKNTLYLQMNSLRAEDTAVYYCAREPYSYWLDYWGQGTLVTVSS
VL: not shown
notes: ARE set
In the case of B26, the figures for the EC50 in test [1] and in test [2] were 289 nM and 74.4 nM, respectively.

B27: Ab41 (Fab, V domains shown)
VH: EVQLLESGGGLVQPGGSLRLSCAASGFTFSSYSMHWVRQAPGKGLEWVASIKSSGGYISYADSVKGRFTISRDNSKNTLYLQMNSLRAEDTAVYYCARVPYDYWMDYWGQGTLVTVSS
VL: not shown
notes: ARV set
As to B27, the EC50 in test [1] turned out to be 11 nM; in test [2], 9.5 nM.
